{"source": "patent US20200325187A1", "about": "(Genentech, published 2020)", "key": {"[1]": {"target": "T1, hVEGF-A (8-109) (human, UniProt P15692 214-315)", "T1 sequence (looked up)": "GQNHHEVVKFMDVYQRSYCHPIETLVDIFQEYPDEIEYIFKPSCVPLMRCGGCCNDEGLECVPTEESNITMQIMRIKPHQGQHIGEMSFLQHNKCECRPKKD", "assay": "competition ELISA: VEGF-A (8-109) coated, constant Flt-1 receptor, peptide titrated; blocked ligand: Flt-1", "procedure": "(§1) Binding specificity of each peptide was established by competition ELISA. […] After blocking with block buffer (PBS with 0.5% BSA and 0.05% TWEEN®20) for 2 hours at room temperature, the receptor-Fc fusions or biotinylated receptors were serially diluted using assay buffer (PBS with 0.5% BSA and 0.05% TWEEN®20) and incubated for 1 hour at room temperature. […] Competition ELISA was conducted in an identical fashion as described above except after blocking, a mixture of serially diluted peptide containing a constant concentration of receptor-Fc fusion or biotinylated receptor (concentration of receptor was set to EC₆₀) was added and incubated for 1 hour. All recombinant human proteins and antibodies were purchased from R &D Systems (Minneapolis, Minn.)."}, "[2]": {"target": "T1, hVEGF-A (8-109)", "assay": "competition ELISA: VEGF-A (8-109) coated, constant KDR receptor, peptide titrated; blocked ligand: KDR", "procedure": "as §1"}, "[3]": {"target": "T2, PIGF-2 (human, UniProt P49763-3 19-170)", "T2 construct": "also called P1Gf-2; P1GF", "T2 sequence (looked up)": "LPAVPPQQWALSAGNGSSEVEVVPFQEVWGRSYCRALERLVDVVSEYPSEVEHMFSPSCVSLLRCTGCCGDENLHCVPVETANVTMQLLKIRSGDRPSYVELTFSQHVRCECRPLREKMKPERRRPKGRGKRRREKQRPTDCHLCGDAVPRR", "assay": "competition ELISA: PIGF-2 coated, constant Flt-1 receptor, peptide titrated"}}}
{"binder": "GCNIMLPFWGCGRDFECLAGCVCQYYQSCG (designed binder)", "note": "[VEGF_CKP9.54.90]", "values": [{"measurement": "IC50 (read off the curve)", "setting": "[1]", "result": "~70", "unit": "nM"}, {"measurement": "IC50 (read off the curve)", "setting": "[2]", "result": "~20", "unit": "nM"}, {"measurement": "binding result", "setting": "[3]", "result": "no binding (tested: 5 µM)"}]}
